Molecular target: T1, Human nucleosome core particle (human histone octamer with the 147-bp Widom 601 DNA) (human, UniProt P68431 1-136; P62805 1-103; P04908 1-130; P06899 1-126)
T1 construct: also called recombinant human NCP; human NCP
Assay: ITC
Settings: both partners purified

Binder | fold weaker binding than IE1-CTD alone | Kd
Full-length hCMV (Towne) IE1 (natural protein) MESSAKRKMDPDNPDEGPSSKVPRPETPVTKATTFLQTMLRKEVNSQLSLGDPLFPELAEESLKTFERVTEDCNENPEKDVLAELVKQIKVRVDMVRHRIKEHMLKKYTQTEEKFTGAFNMMGGCLQNALDILDKVHEPFEEMKCIGLTMQSMYENYIVPEDKREMWMACIKELHDVSKGAANKLGGALQAKARAKKDELRRKMMYMCYRNIEFFTKNSAFPKTTNGCSQAMAALQNLPQCSPDEIMAYAQKIFKILDEERDKVLTHIDHIFMDILTTCVETMCNEYKVTSDACMMTMYGGISLLSEFCRVLSCYVLEETSVMLAKRPLITKPEVISVMKRRIEEICMKVFAQYILGADPLRVCSPSVDDLRAIAEESDEEEAIVAYTLATRGASSSDSLVSPPESPVPATIPLSSVIVAENSDQEESEQSDEEEEEGAQEEREDTVSVKSEPVSEIEEVAPEEEEDGAEEPTASGGKSTHPMVTRSKADQ | ~5 fold | 
GGKSTHPMVTRSKADQ [IE1-CTD peptide (chromatin-tethering domain of hCMV IE1, a.a. 476–491)] |  | 0.4 µM
HPMVTRSKADQ [IE1-CTD mutant lacking the N-terminal segment (Δ476–480)] |  | 12 µM
